One may read the IC50 as the concentration at which inhibition is half-maximal.

The target in this assay is T1, human α4β7 integrin (human, UniProt P13612 34-1032; P26010 20-798).
T1 construct: whole, on cells; also called α4β7 integrin on HuT 78 cells; α4β7 on RPMI 8866 cells
As to the kind of experiment: inhibition of adhesion of α4β7+ RPMI 8866 cells to plate-bound human MAdCAM-1-Ig chimera; antibody varied from 15.0 to 0.00075 µg/ml.

Experimental: Wells were then washed once with wash buffer (50 mM Tris HCl, 0.14 M NaCl, 1 mM MnC12, pH 7.2) using a microplate autowasher (Bio-Tek Instruments, Winooski, Vt.) and blocked for 1.5 hrs at 37° C. with 100 μL of 10% FBS diluted in PBS.
BCECF (2′,7′-bis-(2-carboxyethyl)-5-(and 6)-carboxy fluorescein, acetoxymethyl ester; Molecular Probes, Inc., Eugene, Oreg.) was reconstituted to 50 μg/ml in DMSO and added to the cell suspension to a final dilution of 1:500. After incubating for 30 minutes at 37° C., cells were then washed in assay buffer (HBSS with 2% Fetal Bovine Serum, 25 mM HEPES, penicillin/streptomycin, pH 7.2), and 50,000 cells were added to each well of a V-bottom 96-well plate. […] The plate coated with MAdCAM-1 chimera was washed to remove blocking buffer, and these fluorescently labeled RPMI 8866 cells were then transferred to each well. The plate was placed on a platform shaker (New Brunswick Scientific Co., Inc., Edison, N.J.) at 40 RPM for 30 minutes at room temperature wrapped in aluminum foil. Unbound cells were removed by a single wash step and fluorescence subsequently measured (excite at 485 nm, read at 535 nm) with a Fluorescence Concentrator Analyzer (IDEXX Laboratories, Inc., Westbrook, Me.) before and after washing.

B1: murine Act-1 monoclonal antibody (antibody, mouse IgG1, V domains shown)
VH: QVQLQQPGAELVKPGTSVKLSCKGYGYTFTSYWMHWVKQRPGQGLEWIGEIDPSESNTNYNQKFKGKATLTVDISSSTAYMQLSSLTSEDSAVYYCARGGYDGWDYAIDYWGQGTSVTVSS
VL: DVVVTQTPLSLPVSFGDQVSISCRSSQSLAKSYGNTYLSWYLHKPGQSPQLLIYGISNRFSGVPDRFSGSGSGTDFTLKISTIKPEDLGMYYCLQGTHQPYTFGGGTKLEIK
notes: Mouse IgG1/kappa from the Act-1 hybridoma (ATCC PTA-3663); also called mAb Act-1; mouse Act-1 antibody
As for B1, the IC50 came out at 1.8 ng/mL.

Values taken from patent publication US20090011464A1 (published 2009).
